Assays:
Type in all cases: cell-based, human
[1] = test system: wild-type and variant SNAP-GIPR; test: cADDis cAMP imaging in AD293 cells, ensemble, expression-matched and per decile; details: Fig S3F, cADDis, mean
Procedure: AD293 cells were reverse transfected with the GIPR variant or wild-type plasmids using Lipofectamine 2000 and cotransduced with the cADDis Green Up BacMam (10 μl per well, Montana Molecular, USA), in 96-well, poly-D-lysine–coated microplates. All variants were tested in parallel on each occasion to control for transfection efficiency differences between experiments. After 24 hours, cells were labeled using 500 nM SNAP-Surface Alexa Fluor 647 for 10 min at room temperature. Cells were washed three times and then imaged in KRBH buffer containing 6 mM glucose and 0.1% BSA. Imaging was performed at 37°C by wide-field microscopy using the same microscope as in the “Assessment of surface GIPR expression by SNAP-tag labeling in cell lines” section, with 9 FOVs for both cADDis and SNAP-Surface fluorescence acquired from each well using a 10X, 0.45 NA air objective. […] Flat-field correction was performed using BaSiC ([72]), drift correction was performed using SIFT, and a maximum intensity projection of the cADDis channel was used to segment individual cells. cAMP responses were determined by quantifying the cADDis fluorescence intensity for each cell at each time point. Nonviable cells or noncell objects were excluded according to criteria for allowable cell IBMX/FSK responses. […] The cADDis mask was then used to quantify the SNAP-Surface signal from each cell. Wild-type SNAP-Surface readings were split into deciles, and these deciles were subsequently used to categorize variant-transfected cells to match against the wild type. After trimming the top and bottom deciles, the mean was taken of each decile mean for surface expression level or cAMP response, which achieved matched expression levels by effectively applying an inverse weighting to counteract differences in cell number in each decile for different variants. Ensemble expression levels or cAMP responses were calculated without regard to deciles. Variant cADDis responses were also analyzed within their own surface expression deciles.

[2] = test system: wild-type and variant SNAP-GIPR; test: Constitutive and agonist-mediated internalization, reversible SNAP-tag labelling, INS-1 cells; design: key to Internalisation, GIP-only / Internalisation, Vehicle / Internalisation, +GIP: % internalization: residual fluorescence after Mesna vs pre-Mesna; details: Mean
Procedure: (§1) Twenty-four hours before the experiment, AD293 or INS-1 cells were reverse transfected with GIPR variant or wild-type plasmids using Lipofectamine 2000 in 96-well, clear-bottom, black microplates precoated with poly-D-lysine. All variants were tested in parallel on each occasion to control for transfection efficiency differences between experiments. […] Media were then removed, cells washed with PBS and then placed in TNE buffer (pH 8.6) for imaging. […] After 10 min, the well was reimaged again to detect remaining fluorescence from internalized GIPR. Images were analyzed as in the “Assessment of surface GIPR expression by SNAP-tag labeling in cell lines” section, with the residual specific fluorescence after Mesna treatment expressed relative to the pre-Mesna value to establish percentage internalization.

[3] = test system: wild-type and variant SNAP-GIPR; test: Surface SNAP-GIPR expression (SNAP-tag labelling) in INS-1 cells; details: Fig 4G; Mean
Procedure: (§2) Twenty-four hours before the experiment, AD293 or INS-1 cells were reverse transfected with GIPR variant or wild-type plasmids using Lipofectamine 2000 in 96-well, clear-bottom, black microplates precoated with poly-D-lysine. All variants were tested in parallel on each occasion to control for transfection efficiency differences between experiments. Cells were then labeled using the cell-impermeant probe SNAP-Surface Alexa Fluor 647 (500 nM, New England Biolabs, USA) for 10 min at room temperature to label only surface GIPR. […] Several fields of view (FOVs) were acquired within each well using a 20X, 0.75–numerical aperture (NA) air objective. Surface GIPR fluorescence was quantified after flat-field correction using BaSiC ([72]) and segmenting using Phantast ([73]), which generates a mask based on the phase contrast images to demarcate cell versus noncell. Wide-field imaging of the surface-specific labeling achieved by SNAP-Surface probes means that surface expression can be established from whole-cell fluorescence, after subtracting nonspecific fluorescence from a separate well containing nontransfected cells processed in parallel from the same experiment. Data were normalized by dividing by the average specific signal across each experiment, or by the wild-type value, as indicated in the figure legends.

[4] = test system: wild-type and variant SNAP-GIPR; test: Surface SNAP-GIPR expression (SNAP-tag labelling) in AD293 cells; details: for AD293 Surface: Fig S3E, mean; for Surface SNAP-GIPR expression: sheet Fig 1C;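 as to all read-outs here: scaled to the experimental average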
Procedure: as §2

[5] = test system: wild-type and variant SNAP-GIPR; test: Single-concentration GIP cAMP response by HTRF in INS-1 cells; details: Fig S3E, mean
Procedure: (§3) All variants were tested in parallel on each occasion to control for transfection efficiency differences between experiments.

[6] = test system: wild-type and variant SNAP-GIPR; test: Single-concentration GIP cAMP response by HTRF in AD293 cells; details: Fig S3F, HTRF, mean;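 also: ratio to experiment-wide average response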
Procedure: as §3

[7] = test system: wild-type and variant SNAP-GIPR; test: Constitutive and agonist-mediated internalization, reversible SNAP-tag labelling, AD293 cells; design: key to Internalisation, Vehicle / Internalisation, +GIP / Internalisation, GIP-only: % internalization: residual fluorescence after Mesna vs pre-Mesna; Surface expression: unit not given here; details: Mean
Procedure: as §1

B1: R131S (protein, UniProt P48546 22-466, looked up, variant R131S)
Gastric inhibitory …: RAETGSKGQTAGELYQRWERYRRECQETLAAAEPPSGLACNGSFDMYVCWDYAAPNATARASCPWYLPWHHHVAAGFVLRQCGSDGQWGLWRDHTQCENPEKNEAFLDQSLILERLQVMYTVGYSLSLATLLLALLILSLFRRLHCTRNYIHINLFTSFMLRAAAILSRDRLLPRPGPYLGDQALALWNQALAACRTAQIVTQYCVGANYTWLLVEGVYLHSLLVLVGGSEEGHFRYYLLLGWGAPALFVIPWVIVRYLYENTQCWERNEVKAIWWIIRTPILMTILINFLIFIRILGILLSKLRTRQMRCRDYRLRLARSTLTLVPLLGVHEVVFAPVTEEQARGALRFAKLGFEIFLSSFQGFLVSVLYCFINKEVQSEIRRGWHHCRLRRSLGEEQRQLPERAFRALPSGSGPGEVPTSRGLSSGTLPGPGNEASRELESYC
AD293 100 pM cADDis ([1]; AD293, 100 pM): 25.6916
AD293 100 nM cADDis ([1]; AD293, 100 nM): 36.03
+GIP internalisation (100 nM) ([2]; Fig 4G, GIP 100 nM): 0.7402
GIP-specific internalisation (100 nM) ([2]; Fig 4G, GIP 100 nM): 0.1769
Constitutive internalisation (100 nM) ([2]; Fig 4G): 0.5633
Internalisation, +GIP ([2]; Fig S4C, INS-1): 45.9917
Internalisation, GIP-only ([2]; Fig S4C, INS-1): 10.9733
Internalisation, Vehicle ([2]; Fig S4C, INS-1): 35.0183
Surface expression [3]: 1.447
AD293 Surface ([4]; column repeated, paired with cAMP 100 nM): 1.362
AD293 Surface ([4]; paired with cAMP 100 pM): 1.362
Surface SNAP-GIPR expression ([4]; replicate 1): 0.7106
Surface SNAP-GIPR expression ([4]; replicate 2): 2.058
Surface SNAP-GIPR expression ([4]; replicate 3): 0.7777
Surface SNAP-GIPR expression ([4]; replicate 4): 1.042
Surface SNAP-GIPR expression ([4]; replicate 5): 1.12
Surface SNAP-GIPR expression ([4]; replicate 6): 1.654
Surface SNAP-GIPR expression ([4]; replicate 7): 1.227
Surface SNAP-GIPR expression ([4]; replicate 8): 1.559
Surface SNAP-GIPR expression ([4]; replicate 9): 1.551
Surface SNAP-GIPR expression ([4]; replicate 10): 1.359
Surface SNAP-GIPR expression ([4]; replicate 11): 1.194
Surface SNAP-GIPR expression ([4]; replicate 12): 1.256
Surface SNAP-GIPR expression ([4]; replicate 13): 1.318
Surface SNAP-GIPR expression ([4]; replicate 14): 0.9106
Surface SNAP-GIPR expression ([4]; replicate 15): 1.304
Surface SNAP-GIPR expression ([4]; replicate 16): 1.372
Surface SNAP-GIPR expression ([4]; replicate 17): 1.574
Surface SNAP-GIPR expression ([4]; replicate 18): 1.448
Surface SNAP-GIPR expression ([4]; replicate 19): 1.382
Surface SNAP-GIPR expression ([4]; replicate 20): 1.357
Surface SNAP-GIPR expression ([4]; replicate 21): 1.273
Surface SNAP-GIPR expression ([4]; replicate 22): 1.627
Surface SNAP-GIPR expression ([4]; replicate 23): 1.424
Surface SNAP-GIPR expression ([4]; replicate 24): 1.463
Surface SNAP-GIPR expression ([4]; replicate 25): 1.446
Surface SNAP-GIPR expression ([4]; replicate 26): 1.405
Surface SNAP-GIPR expression ([4]; replicate 27): 1.475
Surface SNAP-GIPR expression ([4]; replicate 28): 1.453
Surface SNAP-GIPR expression ([4]; replicate 29): 1.54
Surface SNAP-GIPR expression ([4]; replicate 30): 1.363
Surface SNAP-GIPR expression ([4]; replicate 31): 1.317
Surface SNAP-GIPR expression ([4]; replicate 32): 1.55
Surface SNAP-GIPR expression ([4]; replicate 33): 1.587
Surface SNAP-GIPR expression ([4]; replicate 34): 1.477
Surface SNAP-GIPR expression ([4]; replicate 35): 1.359
Surface SNAP-GIPR expression ([4]; replicate 36): 1.207
Surface SNAP-GIPR expression ([4]; replicate 37): 1.251
Surface SNAP-GIPR expression ([4]; replicate 38): 1.505
Surface SNAP-GIPR expression ([4]; replicate 39): 1.263
Surface SNAP-GIPR expression ([4]; replicate 40): 1.363
Surface SNAP-GIPR expression ([4]; replicate 41): 1.33
INS-1 cAMP (100 nM) [5]: 1.548
AD293 100 pM HTRF ([6]; AD293, 100 pM): 0.4337
AD293 100 nM HTRF ([6]; AD293, 100 nM): 1.306
+GIP internalisation (100 nM) ([7]; Fig 4E, GIP 100 nM): 0.7235
GIP-specific internalisation (100 nM) ([7]; Fig 4E, GIP 100 nM): 0.2116
Constitutive internalisation (100 nM) ([7]; Fig 4E): 0.5118
Surface expression ([7]; Fig 4E): 1.308
Internalisation, +GIP ([7]; Fig S4C, AD293): 55.4494
Internalisation, GIP-only ([7]; Fig S4C, AD293): 16.1484
Internalisation, Vehicle ([7]; Fig S4C, AD293): 39.3009
